How the values were obtained:
Test in all cases: fluorescence quenching titration
[1] = target: SMC2 hinge long (mSMC2h of mSMC2h4h-l);SMC4 hinge long (mSMC4h of mSMC2h4h-l) (mouse;mouse) (UniProt Q8CG48+Q8CG47)
[2] = target: SMC2 hinge long K566E;SMC4 hinge long (mSMC4h of mSMC2h4h-l) (mouse;mouse, UniProt Q8CG48;Q8CG47 492-680;581-766, K566E|)
[3] = target: SMC2 hinge long (mSMC2h of mSMC2h4h-l);SMC4 hinge long (mSMC4h of mSMC2h4h-l) (mouse;mouse, UniProt Q8CG48;Q8CG47 492-680;581-766, |)
[4] = target: SMC2 hinge long K613E;SMC4 hinge long K698E (mouse;mouse, UniProt Q8CG48;Q8CG47 492-680;581-766, K613E|K698E)
[5] = target: SMC2 hinge long K566E;SMC4 hinge long K657E (mouse;mouse, UniProt Q8CG48;Q8CG47 492-680;581-766, K566E|K657E)
SMC2 hinge long K566E;SMC4 hinge long K657E, sequence (Q8CG48 492-680 K566E, chain 1 of 2): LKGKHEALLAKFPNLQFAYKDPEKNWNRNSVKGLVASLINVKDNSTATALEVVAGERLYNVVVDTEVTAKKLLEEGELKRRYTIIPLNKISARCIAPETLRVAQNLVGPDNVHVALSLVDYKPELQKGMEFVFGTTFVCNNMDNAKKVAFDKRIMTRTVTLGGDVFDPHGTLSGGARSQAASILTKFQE
SMC2 hinge long K566E;SMC4 hinge long K657E, sequence (Q8CG47 581-766 K657E, chain 2 of 2): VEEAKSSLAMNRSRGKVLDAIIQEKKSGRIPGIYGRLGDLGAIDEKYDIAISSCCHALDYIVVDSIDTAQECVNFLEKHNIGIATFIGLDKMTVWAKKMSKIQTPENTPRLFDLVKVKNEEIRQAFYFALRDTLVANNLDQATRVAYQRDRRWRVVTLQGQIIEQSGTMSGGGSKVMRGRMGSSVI

SMC2 hinge long (mSMC2h of mSMC2h4h-l);SMC4 hinge long (mSMC4h of mSMC2h4h-l) (mouse;mouse), sequence (Q8CG48 492-680, chain 1 of 2): as the sequence (Q8CG48 492-680 K566E, chain 1 of 2) above, with E75K counted along it
SMC2 hinge long (mSMC2h of mSMC2h4h-l);SMC4 hinge long (mSMC4h of mSMC2h4h-l) (mouse;mouse), sequence (Q8CG47 581-766, chain 2 of 2): as the sequence (Q8CG47 581-766 K657E, chain 2 of 2) above, with E77K counted along it
SMC2 hinge long (mSMC2h of mSMC2h4h-l);SMC4 hinge long (mSMC4h of mSMC2h4h-l), sequence (Q8CG48 492-680, chain 1 of 2): as the sequence (Q8CG48 492-680 K566E, chain 1 of 2) above, with E75K counted along it
SMC2 hinge long (mSMC2h of mSMC2h4h-l);SMC4 hinge long (mSMC4h of mSMC2h4h-l), sequence (Q8CG47 581-766, chain 2 of 2): as the sequence (Q8CG47 581-766 K657E, chain 2 of 2) above, with E77K counted along it
SMC2 hinge long K566E;SMC4 hinge long (mSMC4h of mSMC2h4h-l), sequence (Q8CG48 492-680 K566E, chain 1 of 2): as the sequence (Q8CG48 492-680 K566E, chain 1 of 2) above
SMC2 hinge long K566E;SMC4 hinge long (mSMC4h of mSMC2h4h-l), sequence (Q8CG47 581-766, chain 2 of 2): as the sequence (Q8CG47 581-766 K657E, chain 2 of 2) above, with E77K counted along it
SMC2 hinge long K613E;SMC4 hinge long K698E, sequence (Q8CG48 492-680 K613E, chain 1 of 2): as the sequence (Q8CG48 492-680 K566E, chain 1 of 2) above, with E75K, K122E counted along it
SMC2 hinge long K613E;SMC4 hinge long K698E, sequence (Q8CG47 581-766 K698E, chain 2 of 2): as the sequence (Q8CG47 581-766 K657E, chain 2 of 2) above, with E77K, K118E counted along it

Molecule | Kd [1] [µM] | Kd [3] [µM] | further results
CATCCTGTCCGCTGC / GCAGCGGACAGGATGTTTTTTTTTTTTTTT [30-mer ds-ssDNA-3'] | 1.55 | – | –
CATCCTGTCCGCTGC / CCGGAGAGCATCTCG / GCAGCGGACAGGATGTTTTTTTTTTTTTTTCGAGATGCTCTCCGG [45-mer ds-ss-dsDNA] | 0.66 | – | –
CATCCTGTCCGCTGC / TTTTTTTTTTTTTTTGCAGCGGACAGGATG [30-mer ds-ssDNA-5'] | 1.77 | – | –
TTTTTTTTTTTTTTTTTTTTTTTTTTTTTT (ssDNA) [30-mer ssDNA] | – | 0.45 ± 0.04 | Kd [2]: 1.8 ± 0.08 µM; Kd [4]: 2.95 ± 0.3 µM; Kd [5]: 3.26 ± 0.58 µM
TTTTTTTTTTTTTTT (ssDNA) [15-mer ssDNA] | – | 3.21 ± 0.14 | –

— paper PMC2879519
